T1: αT-catenin head region (aa 1–659) (Mus musculus, UniProt Q65CL1 1-659)
T1 construct: αT-catenin, Mus musculus, head region (N- and M-domains), aa 1-659; in pGEX-TEV; also called αT-catenin head (1–659); αT-catenin N1-M3 (aa 1–659); source: E. coli BL21-Gold, purified (glutathione-agarose, TEV cleavage, Mono Q or Mono S, S200)
T1 sequence (looked up): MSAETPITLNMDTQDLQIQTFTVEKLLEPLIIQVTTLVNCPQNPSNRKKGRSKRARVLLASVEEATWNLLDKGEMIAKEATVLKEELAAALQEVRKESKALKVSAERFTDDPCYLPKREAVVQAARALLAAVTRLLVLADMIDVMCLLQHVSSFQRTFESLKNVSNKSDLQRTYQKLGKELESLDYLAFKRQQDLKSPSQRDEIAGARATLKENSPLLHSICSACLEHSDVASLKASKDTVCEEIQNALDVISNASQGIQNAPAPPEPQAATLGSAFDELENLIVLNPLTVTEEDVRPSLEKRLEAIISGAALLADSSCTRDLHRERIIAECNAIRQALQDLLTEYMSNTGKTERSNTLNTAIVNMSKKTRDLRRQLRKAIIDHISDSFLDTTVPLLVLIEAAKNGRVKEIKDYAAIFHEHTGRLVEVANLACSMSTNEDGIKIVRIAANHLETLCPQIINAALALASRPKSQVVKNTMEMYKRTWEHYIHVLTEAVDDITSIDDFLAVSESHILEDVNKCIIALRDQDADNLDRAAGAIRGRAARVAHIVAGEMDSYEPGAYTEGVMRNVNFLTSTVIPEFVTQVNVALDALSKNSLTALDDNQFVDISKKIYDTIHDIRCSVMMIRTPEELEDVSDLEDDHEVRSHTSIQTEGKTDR

T2: αT-catenin N1-N2 (aa 1–259) (Mus musculus, UniProt Q65CL1 1-259)
T2 construct: αT-catenin, Mus musculus, N1-N2, aa 1-259; in pGEX-TEV; also called αT-catenin WT N1-N2; αT-catenin N1-N2 (1–259); source: E. coli BL21-Gold, purified (glutathione-agarose, TEV cleavage, Mono Q or Mono S, S200)
T2 sequence (looked up): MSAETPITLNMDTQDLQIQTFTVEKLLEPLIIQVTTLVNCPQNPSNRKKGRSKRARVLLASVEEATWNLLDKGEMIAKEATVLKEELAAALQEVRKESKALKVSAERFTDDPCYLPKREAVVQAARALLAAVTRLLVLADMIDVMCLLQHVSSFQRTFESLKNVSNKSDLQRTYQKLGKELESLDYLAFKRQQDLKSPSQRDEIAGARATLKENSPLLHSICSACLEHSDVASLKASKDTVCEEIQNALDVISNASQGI

T3: vinculin D1 (aa 1–259) (UniProt P12003 1-259)
T3 construct: vinculin D1 fragment, aa 1-259, the first 2 four-helix bundles; in pGEX-TEV; also called vinculin aa 1 to 259 (D1); vinculin N-terminus; source: E. coli BL21-Gold, purified (glutathione-agarose, TEV cleavage, Mono Q or Mono S, S200)
T3 sequence (looked up): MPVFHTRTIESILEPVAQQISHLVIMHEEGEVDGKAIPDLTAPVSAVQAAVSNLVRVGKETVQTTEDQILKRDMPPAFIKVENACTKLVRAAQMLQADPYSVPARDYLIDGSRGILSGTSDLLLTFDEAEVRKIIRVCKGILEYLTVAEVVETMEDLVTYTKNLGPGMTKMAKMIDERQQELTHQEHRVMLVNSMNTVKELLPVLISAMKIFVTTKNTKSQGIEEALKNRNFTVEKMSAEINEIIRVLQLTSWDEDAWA


Key:
Conditions in all cases: both partners purified
[1] = target: T1, αT-catenin head region (aa 1–659); test: ITC; β-catenin (110-150 μM) or β-catenin–Ncad_(cyto) complex (103-158 μM) injected into αT-catenin fragment in the cell; 25 °C; 20 mM Hepes pH 8.0, 150 mM NaCl, 1 mM TCEP
[2] = target: T2, αT-catenin N1-N2 (aa 1–259); test: as above
vinculin D1 (aa 1–259) = target: T3, vinculin D1 (aa 1–259); test: ITC; vinculin D1 injected into αT-catenin or αE-catenin fragment (or αT-catenin head–β-catenin complex) in the cell; 25 °C; 20 mM Hepes pH 8.0, 150 mM NaCl, 1 mM TCEP

Binder | dH [1] [kcal/mol] | dH [2] [kcal/mol] | Kd (vinculin D1 (aa 1–259)) [nM]
β-catenin–N-cadherin cytoplasmic tail complex (complex, β-catenin, Mus musculus, full length; N-cadherin cytoplasmic tail (Ncad_(cyto)); the methods name no plasmid for the N-cadherin tail; also called β-catenin–Ncad_(cyto); β-cat–Ncad_(cyto); source: β-catenin: E. coli BL21-Gold, purified) chain 1: MATQADLMELDMAMEPDRKAAVSHWQQQSYLDSGIHSGATTTAPSLSGKGNPEEEDVDTSQVLYEWEQGFSQSFTQEQVADIDGQYAMTRAQRVRAAMFPETLDEGMQIPSTQFDAAHPTNVQRLAEPSQMLKHAVVNLINYQDDAELATRAIPELTKLLNDEDQVVVNKAAVMVHQLSKKEASRHAIMRSPQMVSAIVRTMQNTNDVETARCTAGTLHNLSHHREGLLAIFKSGGIPALVKMLGSPVDSVLFYAITTLHNLLLHQEGAKMAVRLAGGLQKMVALLNKTNVKFLAITTDCLQILAYGNQESKLIILASGGPQALVNIMRTYTYEKLLWTTSRVLKVLSVCSSNKPAIVEAGGMQALGLHLTDPSQRLVQNCLWTLRNLSDAATKQEGMEGLLGTLVQLLGSDDINVVTCAAGILSNLTCNNYKNKMMVCQVGGIEALVRTVLRAGDREDITEPAICALRHLTSRHQEAEMAQNAVRLHYGLPVVVKLLHPPSHWPLIKATVGLIRNLALCPANHAPLREQGAIPRLVQLLVRAHQDTQRRTSMGGTQQQFVEGVRMEEIVEGCTGALHILARDVHNRIVIRGLNTIPLFVQLLYSPIENIQRVAAGVLCELAQDKEAAEAIEAEGATAPLTELLHSRNEGVATYAAAVLFRMSEDKPQDYKKRLSVELTSSLFRTEPMAWNETADLGLDIGAQGEALGYRQDDPSYRSFHSGGYGQDALGMDPMMEHEMGGHHPGADYPVDGLPDLGHAQDLMDGLPPGDSNQLAWFDTDL chain 2: MKRRDKERQAKQLLIDPEDDVRDNILKYDEEGGGEEDQDYDLSQLQQPDTVEPDAIKPVGIRRLDERPIHAEPQYPVRSAAPHPGDIGDFINEGLKAADNDPTAPPYDSLLVFDYEGSGSTAGSLSSLNSSSSGGDQDYDYLNDWGPRFKKLADMYGGGDD | -27 ± 0.2 | -18.9 ± 1 | 
αE-catenin M1-M2 (aa 273–510) (domain or fragment, Mus musculus, UniProt P26231 273-510, looked up, αE-catenin, Mus musculus, M1-M2, aa 273-510; in pGEX-TEV; also called αE-catenin M1-M2 (273–510); source: E. coli BL21-Gold, purified (glutathione-agarose, TEV cleavage, Mono Q or Mono S, S200)) GSGGELAYALNNFDKQIIVDPLSFSEERFRPSLEERLESIISGAALMADSSCTRDDRRERIVAECNAVRQALQDLLSEYMGNAGRKERSDALNSAIDKMTKKTRDLRRQLRKAVMDHVSDSFLETNVPLLVLIEAAKNGNEKEVKEYAQVFREHANKLIEVANLACSISNNEEGVKLVRMSASQLEALCPQVINAALALAAKPQSKLAQENMDLFKEQWEKQVRVLTDAVDDITSIDD |  |  | 31.9 ± 9.1

From PMC8091058, “Distinct intramolecular interactions regulate autoinhibition of vinculin binding in αT-catenin and αE-catenin” (The Journal of Biological Chemistry, 2021)
